Measured values as given in paper PMC3998727 (Nature medicine, 2012).

B1: BMP7: Bone morphogenetic protein–7, member of the TGF-β superfamily, natural ligand of Alk3 (protein, UniProt P18075 293-431, looked up)
Bone morphogenetic protein 7: STGSKQRSQNRSKTPKNQEALRMANVAENSSSDQRQACKKHELYVSFRDLGWQDWIIAPEGYAAYYCEGECAFPLNSYMNATNHAIVQTLVHFINPETVPKPCCAPTQLNAISVLYFDDSSNVILKKYRNMVVRACGCH

Legend:
[1] = test system: DN kidney; experiment: Advanced diabetic nephropathy, captopril and THR–123 combination; type: in vivo, mice; conditions: eight months DN
[2] = test system: tubular epithelial cells (TECs; NP–1 cells); experiment: Hypoxia induced apoptosis of TECs; type: cell-based; conditions: Annexin V; NP–1 cells in hypoxia
[3] = test system: DN kidney; experiment: Streptozotocin–induced diabetic nephropathy; type: in vivo, CD–1 mice
[4] = test system: TECs (NP–1 cells); experiment: Reversal of TGF-β and EGF induced EMT in TECs; type: cell-based; conditions: TECs after 48 hours of incubation with TGF-β and EGF

Row | Molecule | EMT program [1] | macrophage infiltration ([1]; Mac–1) | hypoxia induced apoptosis of TECs [2] | mesangium expansion ([3]; STZ–induced six month DN, BMP7 1–6 months, THR–123 5–6 months treatment) | induction of an EMT program ([3]; six months DN) | renal dysfunction (blood urea nitrogen) ([3]; six months DN) | macrophage infiltration ([3]; six months DN, Mac–1, F4/80) | reversal of TGF-β–induced EMT [4]
1 | C[C@H](CS)C(=O)N1CCC[C@H]1C(=O)O [CPR, captopril] | inhibited | inhibited macrophage infiltration |  |  |  |  |  | 
2 | B1 |  |  | inhibited | inhibited mesangium expansion | inhibited induction of an EMT program | significantly reversed renal dysfunction | reduced macrophage infiltration | reversed
